Measurements: patent US20180074079A1
Each block holds one substance with its values, some of them ahead of it.

Key:
[1] = biological target: rHDL bearing apoA-IW19:A136 (human) (UniProt P02647); test: FRET exchange assay, rHDL to lipid-free protein 1:5 molar, 37 C
[2] = biological target: rHDL bearing apoA-IW19:A136 (human) (UniProt P02647); test: FRET exchange assay, biphasic fit
[3] = biological target: 9.6 nm POPC rHDL generated with Alexa 350 labeled apoA-I (human) (UniProt P02647); test: displacement/exchange, rHDL apoA-I to lipid-free apoA-I 1:5 molar, 37 C, NDGGE fluorescence
[4] = biological target: rHDL bearing apoA-IW19:A136 (human) (UniProt P02647); test: FRET (Trp19 to AEDANS136) exchange assay, rHDL to lipid-free protein 1:5 molar, 37 C
[5] = biological target: HDL in human plasma (human); test: EPR, increasing probe concentration in patient plasma
[6] = biological target: HDL in human plasma (human); test: EPR, frozen and thawed plasma with higher TG concentration, third freeze-thaw
[7] = biological target: HDL in human plasma (human); test: EPR, center peak amplitude over time, 0.3 mg/ml probe in plasma of patient D1
[8] = biological target: HDL in human plasma (human); test: EPR, frozen and thawed plasma with higher TG concentration
[9] = biological target: HDL in human plasma (human); test: EPR, frozen and thawed plasma
[10] = biological target: HDL in human plasma (human); test: EPR, center peak amplitude over time, 0.3 mg/ml probe in plasma of patient N1
[11] = biological target: HDL in human plasma (human); test: EPR, center peak amplitude over time, 0.3 mg/ml probe in plasma of patient M1

Chain of rHDL bearing apoA-IW19:A136 (human) (P02647 other isoform, or with tags, fused parts or gaps): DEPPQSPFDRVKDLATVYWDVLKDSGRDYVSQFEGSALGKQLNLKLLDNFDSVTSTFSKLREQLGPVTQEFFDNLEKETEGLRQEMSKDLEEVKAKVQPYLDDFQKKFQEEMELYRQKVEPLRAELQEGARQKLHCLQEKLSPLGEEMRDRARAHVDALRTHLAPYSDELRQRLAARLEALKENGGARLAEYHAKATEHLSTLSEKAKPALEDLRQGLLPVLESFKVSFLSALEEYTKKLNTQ
Chain of 9.6 nm POPC rHDL generated with Alexa 350 labeled apoA-I (human) (P02647 25-267): as the sequence (P02647 other isoform, or with tags, fused parts or gaps) above, with F8W, W19V, F50W, F72W, F108W, C136E counted along it

- exponential relaxation time of exchange (t1) [1]: 0.92 h
- exponential relaxation time of exchange (t2) [1]: 18.8 h
- exchange impaired population [2]: 57.3%
- unaffected population [2]: 42.7%
Substance: Trp Null apoA-I oxidized by the MPO-H2O2-nitrite system (from UniProt P02647 25-267)

- release of Alexa350 labeled apoA-I from rHDL into the lipid-free pool [3]: > 90%
Substance: unlabeled lipid-free apoA-I (from UniProt P02647 25-267)

- exponential relaxation time of exchange (t) [1]: 0.67 h
Substance: Trp Null apoA-I oxidized by peroxynitrite (from UniProt P02647 25-267)

- exponential relaxation time (time to 50% maximal exchange, τ) [4]: 0.94 h
Substance: Trp Null apoA-I (four endogenous tryptophans substituted for phenylalanine) (from UniProt P02647 25-267)

- saturating concentration [5]: 1.9 mg/mL
- decrease in EPR observable binding after freeze-thaw, plasma with higher TG [6]: 25%
- time to maximal binding (patient D1) [7]: 10 min
- decrease in EPR observable binding after freeze-thaw, plasma with higher TG [8]: 15%
- reduction of rate and degree of binding after a freeze-thaw cycle [9]: 10%
- reduction of rate and degree of binding after the third freeze-thaw [9]: 20%
- time to binding (patient N1) [10]: < 5 min
- time to maximal binding (patient M1) [11]: 8 min
Substance: apoA-ISL217 (apoA-I bearing a G217C mutation, cysteine derivatized with a thiosulfonate linked nitroxide spin label) (from UniProt P02647 25-267)
